Measurements taken from US20070014720A1 (published 2007).

T1: human CD20 (human, UniProt P11836 1-297)
T1 construct: whole, on cells; In all assays CD20 stood on cells; also called CD20 antigen
T1 sequence (looked up): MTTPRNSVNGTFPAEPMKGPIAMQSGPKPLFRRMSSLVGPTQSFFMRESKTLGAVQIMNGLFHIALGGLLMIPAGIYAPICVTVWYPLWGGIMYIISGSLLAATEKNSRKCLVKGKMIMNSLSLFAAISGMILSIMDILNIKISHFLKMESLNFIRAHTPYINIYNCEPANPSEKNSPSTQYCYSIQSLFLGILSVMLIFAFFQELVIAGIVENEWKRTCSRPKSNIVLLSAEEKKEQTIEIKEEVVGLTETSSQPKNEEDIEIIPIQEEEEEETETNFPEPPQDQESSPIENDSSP


How the values were obtained:
human CD20 [1] = target: T1, human CD20; test: FACS KD on SB cells expressing CD20 (GMF against mAb concentration, nonlinear fit)
Protocol: The affinity of purified antibodies against CD20 (mAbs 1.1.2, 1.2.1, 2.1.2, 1.3.3, 1.5.3, 1.10.3.1, 1.13.2), Rituximab (positive control), and B1 was determined by FACS. Briefly, SB cells expressing CD20 were resuspended in FACS buffer (2% FBS, 0.05% NaN₃) at a concentration of approximately 5 million cells/mL. HSB cells were also resuspended in FACS buffer at a concentration of approximately 9 million cells/mL. Cells were kept on ice. Purified antibodies were serially diluted in filtered 1×PBS (2×) across 11 wells in 96-well plates. The twelfth well in each row contained buffer only. 1×PBS and cells were added to each mAb well such that the final volume was […] and each well contained approximately 375,000 cells. The final molecular concentration ranges for the mAbs were as follows:
Plates were placed on a plate shaker for 3 hours at 4° C., then spun and washed 3× with PBS. 200 μL of 145 nM Cy5 goat α-human polyclonal antibody was added to each well, and 200 μL of 192 nM Cy5 goat α-mouse polyclonal antibody was added to the cells complexed with B1 antibody. Plates were then incubated for 40 minutes at 4° C., then spun and washed 3× with PBS.
The Geometric Mean Fluorescence (GMF) of 10,000 cells for each mAb concentration was determined using a FACSCalibur instrument. No significant nonspecific binding (no significant signal) was apparent from the HSB cells. In each row containing the SB cells, the signal from the twelfth well (containing buffer only) was subtracted from the signal from the first 11 wells. A nonlinear plot of GMF as a function of molecular mAb concentration was fit using Scientist software using the equation: […]

human CD20 [2] = target: T1, human CD20; test: cell-based or functional assay

Kd (human CD20 [1]) [nM] | % Lysis Daudi 0.001 µg/ml ADCC (human CD20 [2]) [%] | % Lysis Daudi 1 µg/ml ADCC (human CD20 [2]) [%] | % Lysis Raji 0.001 µg/ml ADCC (human CD20 [2]) [%] | % Lysis Raji 1 µg/ml ADCC (human CD20 [2]) [%] | % Lysis Ramos 0.001 µg/ml ADCC (human CD20 [2]) [%] | % Lysis Ramos 1 µg/ml ADCC (human CD20 [2]) [%] | EC50 µg/ml Daudi CDC (human CD20 [2]) [µg/mL] | EC50 µg/ml Raji CDC (human CD20 [2]) [µg/mL] | EC50 µg/ml Ramos Apoptosis Cell Titer Glo (human CD20 [2]) [µg/mL] | EC50 µg/ml Ramos CDC (human CD20 [2]) [µg/mL] | EC50 µg/ml Ramos Apoptosis Alamar Blue (human CD20 [2]) [µg/mL] | EC50 µg/ml Ramos Apoptosis Annexin V (human CD20 [2]) [µg/mL] | EC50 µg/ml Ramos Apoptosis WST-1 (human CD20 [2]) [µg/mL] | Binder
11.9 | 56 | 86 | 8 | 45 | 8 | 67 | > 10 | > 10 | 15.2 | > 10 |  |  |  | mAb 1.2.1 (antibody, human IgG1, V domains shown, Human IgG1 kappa; also called 1.2.1.1; 50-001H1_2_1_1) VH: EVQLVQSGAEVKKPGESLKISCKGSGYSFTSYWIGWVRQMPGKGLEWMGIIYPGDSDTRYSPSFQGQVTISADKSISTAYLQWSSLKASDTAMYYCARLGDYYNYYGMDVWGQGTTVTVSS VL: DIVMTQTPLSSPVTLGQPASISCRSSQSLVHSDGKTYLSWLQQRPGQPPRLLIYKSSNRFSGVPDRFSGSGAGTDFTLKISRVEAEDVGVYYCVQATQFPITFGQGTRLEIK
8.9 | 63 | 88 | 9 | 33 | 10 | 58 | 1.91 | 0.22 | 0.332 | 0.23 | 0.0485 | 0.886 | 0.0096 | mAb 1.3.3 (antibody, V domains shown, Human IgG1 kappa) VH: EVQLVQSGAEVKKPGESLKISCKGSGYSFTSYWIGWVRQMPGKGLEWMGIIYPGDSDTRYSPSFQGQVTISADKSITTAYLQWSSLKASDTAMYYCARHPSYGSGSPNFDYWGQGTLVTVSS VL: not shown
